The chains are these.
B1: GpH7-B3 variant A327_09D/GpL16-k0 (antibody, human IgG1, kappa)
heavy: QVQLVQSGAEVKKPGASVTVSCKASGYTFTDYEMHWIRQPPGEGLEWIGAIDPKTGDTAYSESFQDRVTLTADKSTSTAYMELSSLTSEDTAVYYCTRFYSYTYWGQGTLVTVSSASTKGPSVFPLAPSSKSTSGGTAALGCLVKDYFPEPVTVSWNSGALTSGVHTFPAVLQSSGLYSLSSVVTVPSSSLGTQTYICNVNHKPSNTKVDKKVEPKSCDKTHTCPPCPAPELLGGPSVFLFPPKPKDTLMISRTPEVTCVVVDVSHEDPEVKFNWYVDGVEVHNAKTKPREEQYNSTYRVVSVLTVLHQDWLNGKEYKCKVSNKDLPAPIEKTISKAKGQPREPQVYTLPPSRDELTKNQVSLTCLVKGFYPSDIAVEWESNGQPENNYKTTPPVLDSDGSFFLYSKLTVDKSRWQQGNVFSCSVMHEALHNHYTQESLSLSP
light: DIVMTQSPLSLPVTPGEPASISCQASESLVHSNRNTYLHWYLQKPGQSPQLLIYKVSNRFSGVPDRFSGSGSGTDFTLKISRVEAEDVGVYYCSQNTHVPPTFGQGTKVEIERTVAAPSVFIFPPSDEQLKSGTASVVCLLNNFYPREAKVQWKVDNALQSGNSQESVTEQDSKDSTYSLSSTLTLSKADYEKHKVYACEVTHQGLSSPVTKSFNRGEC
notes: homodimerized IgG1, mutation in both H chains; also called Ho Ab
B2: GpH7-B3 variant K326_15Y/GpL16-k0 (antibody, human IgG1, kappa)
heavy: not shown
light: B1 light
notes: as for B1
B3: GpH7-B3 variant S267_02A/GpL16-k0 (antibody, human IgG1, kappa)
heavy: not shown
light: B1 light
notes: as for B1
B4: GpH7-B3 variant Q295_14T/GpL16-k0 (antibody, human IgG1, kappa)
heavy: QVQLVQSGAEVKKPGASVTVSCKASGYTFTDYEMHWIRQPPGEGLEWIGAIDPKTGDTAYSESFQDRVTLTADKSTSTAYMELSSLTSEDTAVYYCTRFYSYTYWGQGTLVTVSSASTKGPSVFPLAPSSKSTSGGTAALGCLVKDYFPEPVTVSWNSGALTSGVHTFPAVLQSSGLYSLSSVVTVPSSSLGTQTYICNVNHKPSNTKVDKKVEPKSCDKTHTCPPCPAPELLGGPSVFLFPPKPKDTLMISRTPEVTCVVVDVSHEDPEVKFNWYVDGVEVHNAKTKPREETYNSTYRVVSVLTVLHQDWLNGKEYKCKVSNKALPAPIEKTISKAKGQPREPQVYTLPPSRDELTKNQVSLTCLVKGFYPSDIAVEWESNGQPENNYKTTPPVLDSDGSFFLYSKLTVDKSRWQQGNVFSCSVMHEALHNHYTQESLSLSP
light: B1 light
notes: as for B1
B5: GpH7-B3 variant S298_18N/GpL16-k0 (antibody, human IgG1, kappa)
heavy: not shown
light: B1 light
notes: as for B1
B6: GpH7-B3 variant P271_07I/GpL16-k0 (antibody, human IgG1, kappa)
heavy: not shown
light: B1 light
notes: as for B1
B7: GpH7-B3 variant Q295_04F/GpL16-k0 (antibody, human IgG1, kappa)
heavy: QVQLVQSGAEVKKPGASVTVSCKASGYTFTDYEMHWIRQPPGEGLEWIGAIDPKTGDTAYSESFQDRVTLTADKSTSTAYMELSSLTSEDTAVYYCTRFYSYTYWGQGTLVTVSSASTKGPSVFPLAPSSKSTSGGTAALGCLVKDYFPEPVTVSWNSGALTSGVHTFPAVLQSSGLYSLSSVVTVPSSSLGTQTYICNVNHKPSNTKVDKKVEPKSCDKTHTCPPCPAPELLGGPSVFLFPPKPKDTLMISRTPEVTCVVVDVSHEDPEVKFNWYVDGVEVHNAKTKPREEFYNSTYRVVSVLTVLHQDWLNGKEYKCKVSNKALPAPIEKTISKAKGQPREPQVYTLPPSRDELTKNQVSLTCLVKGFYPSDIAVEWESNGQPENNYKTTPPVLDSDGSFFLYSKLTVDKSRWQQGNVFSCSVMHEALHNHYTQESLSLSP
light: B1 light
notes: as for B1
B8: GpH7-B3 variant S239_01G/GpL16-k0 (antibody, human IgG1, kappa)
heavy: not shown
light: B1 light
notes: as for B1
B9: GpH7-B3 variant S267_01G/GpL16-k0 (antibody, human IgG1, kappa)
heavy: not shown
light: B1 light
notes: as for B1
B10: GpH7-B3 variant S324_02A/GpL16-k0 (antibody, human IgG1, kappa)
heavy: not shown
light: B1 light
notes: as for B1
B11: GpH7-B3 variant S324_03V/GpL16-k0 (antibody, human IgG1, kappa)
heavy: not shown
light: B1 light
notes: as for B1
B12: GpH7-B3 variant S267_09D/GpL16-k0 (antibody, human IgG1, kappa)
heavy: not shown
light: B1 light
notes: as for B1
B13: GpH7-B3 variant P271_06M/GpL16-k0 (antibody, human IgG1, kappa)
heavy: not shown
light: B1 light
notes: as for B1
B14: GpH7-B3 variant E333_13S/GpL16-k0 (antibody, human IgG1, kappa)
heavy: not shown
light: B1 light
notes: as for B1
B15: GpH7-B3 variant P271_04F/GpL16-k0 (antibody, human IgG1, kappa)
heavy: not shown
light: B1 light
notes: as for B1
B16: GpH7-B3 variant S298_08L/GpL16-k0 (antibody, human IgG1, kappa)
heavy: not shown
light: B1 light
notes: as for B1
B17: GpH7-B3 variant Q295_07I/GpL16-k0 (antibody, human IgG1, kappa)
heavy: not shown
light: B1 light
notes: as for B1
B18: GpH7-B3 variant I336_18N/GpL16-k0 (antibody, human IgG1, kappa)
heavy: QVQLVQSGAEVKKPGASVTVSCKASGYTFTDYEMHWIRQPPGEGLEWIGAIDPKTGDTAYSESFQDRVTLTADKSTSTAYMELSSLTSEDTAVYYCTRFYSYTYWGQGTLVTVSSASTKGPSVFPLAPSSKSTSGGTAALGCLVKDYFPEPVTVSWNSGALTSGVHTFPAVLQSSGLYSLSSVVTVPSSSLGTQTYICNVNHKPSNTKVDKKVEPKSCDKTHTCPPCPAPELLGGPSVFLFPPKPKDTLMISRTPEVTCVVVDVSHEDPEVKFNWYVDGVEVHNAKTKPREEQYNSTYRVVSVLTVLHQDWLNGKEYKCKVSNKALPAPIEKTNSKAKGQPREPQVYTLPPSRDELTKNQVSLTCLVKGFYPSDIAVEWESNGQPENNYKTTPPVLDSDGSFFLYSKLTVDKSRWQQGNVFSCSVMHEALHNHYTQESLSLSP
light: B1 light
notes: as for B1
B19: GpH7-B3 variant P271_20W/GpL16-k0 (antibody, human IgG1, kappa)
heavy: not shown
light: B1 light
notes: as for B1
B20: GpH7-B3 variant I336_02A/GpL16-k0 (antibody, human IgG1, kappa)
heavy: not shown
light: B1 light
notes: as for B1
B21: GpH7-B3 variant A330_08L/GpL16-k0 (antibody, human IgG1, kappa)
heavy: not shown
light: B1 light
notes: as for B1
B22: GpH7-B3 variant E269_06M/GpL16-k0 (antibody, human IgG1, kappa)
heavy: not shown
light: B1 light
notes: as for B1
B23: GpH7-B3 variant I336_01G/GpL16-k0 (antibody, human IgG1, kappa)
heavy: not shown
light: B1 light
notes: as for B1
B24: GpH7-B3 variant E269_04F/GpL16-k0 (antibody, human IgG1, kappa)
heavy: not shown
light: B1 light
notes: as for B1
B25: GpH7-B3 variant K326_14T/GpL16-k0 (antibody, human IgG1, kappa)
heavy: not shown
light: B1 light
notes: as for B1
B26: GpH7-B3 variant S298_15Y/GpL16-k0 (antibody, human IgG1, kappa)
heavy: not shown
light: B1 light
notes: as for B1
B27: GpH7-B3 variant S298_03V/GpL16-k0 (antibody, human IgG1, kappa)
heavy: not shown
light: B1 light
notes: as for B1
B28: GpH7-B3 variant Q295_03V/GpL16-k0 (antibody, human IgG1, kappa)
heavy: not shown
light: B1 light
notes: as for B1
B29: GpH7-B3 variant P271_11K/GpL16-k0 (antibody, human IgG1, kappa)
heavy: not shown
light: B1 light
notes: as for B1
B30: GpH7-B3 variant P271_12R/GpL16-k0 (antibody, human IgG1, kappa)
heavy: not shown
light: B1 light
notes: as for B1
B31: GpH7-B3 variant S298_10E/GpL16-k0 (antibody, human IgG1, kappa)
heavy: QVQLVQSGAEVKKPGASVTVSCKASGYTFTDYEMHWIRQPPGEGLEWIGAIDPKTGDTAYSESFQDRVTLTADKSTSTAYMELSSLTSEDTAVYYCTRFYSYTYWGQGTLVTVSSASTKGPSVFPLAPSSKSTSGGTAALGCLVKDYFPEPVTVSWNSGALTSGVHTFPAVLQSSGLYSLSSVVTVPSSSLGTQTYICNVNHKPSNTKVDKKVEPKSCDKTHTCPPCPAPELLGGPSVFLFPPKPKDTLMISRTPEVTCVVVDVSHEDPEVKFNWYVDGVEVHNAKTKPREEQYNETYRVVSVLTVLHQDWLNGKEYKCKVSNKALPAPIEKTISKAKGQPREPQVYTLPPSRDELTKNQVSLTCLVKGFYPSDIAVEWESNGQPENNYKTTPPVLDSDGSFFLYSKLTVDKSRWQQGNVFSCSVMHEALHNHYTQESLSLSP
light: B1 light
notes: as for B1
B32: GpH7-B3 variant G236_20W/GpL16-k0 (antibody, human IgG1, kappa)
heavy: not shown
light: B1 light
notes: as for B1
B33: GpH7-B3 variant S298_16H/GpL16-k0 (antibody, human IgG1, kappa)
heavy: not shown
light: B1 light
notes: as for B1
B34: GpH7-B3 variant P271_13S/GpL16-k0 (antibody, human IgG1, kappa)
heavy: not shown
light: B1 light
notes: as for B1
B35: GpH7-B3 variant K334_10E/GpL16-k0 (antibody, human IgG1, kappa)
heavy: not shown
light: B1 light
notes: as for B1
B36: GpH7-B3 variant S239_09D/GpL16-k0 (antibody, human IgG1, kappa)
heavy: not shown
light: B1 light
notes: as for B1
B37: GpH7-B3 variant P271_03V/GpL16-k0 (antibody, human IgG1, kappa)
heavy: not shown
light: B1 light
notes: as for B1
B38: GpH7-B3 variant Q295_02A/GpL16-k0 (antibody, human IgG1, kappa)
heavy: not shown
light: B1 light
notes: as for B1
B39: GpH7-B3 variant E269_15Y/GpL16-k0 (antibody, human IgG1, kappa)
heavy: not shown
light: B1 light
notes: as for B1
B40: GpH7-B3 variant A330_14T/GpL16-k0 (antibody, human IgG1, kappa)
heavy: not shown
light: B1 light
notes: as for B1
B41: GpH7-B3 variant I336_10E/GpL16-k0 (antibody, human IgG1, kappa)
heavy: not shown
light: B1 light
notes: as for B1
B42: GpH7-B3 variant S267_03V/GpL16-k0 (antibody, human IgG1, kappa)
heavy: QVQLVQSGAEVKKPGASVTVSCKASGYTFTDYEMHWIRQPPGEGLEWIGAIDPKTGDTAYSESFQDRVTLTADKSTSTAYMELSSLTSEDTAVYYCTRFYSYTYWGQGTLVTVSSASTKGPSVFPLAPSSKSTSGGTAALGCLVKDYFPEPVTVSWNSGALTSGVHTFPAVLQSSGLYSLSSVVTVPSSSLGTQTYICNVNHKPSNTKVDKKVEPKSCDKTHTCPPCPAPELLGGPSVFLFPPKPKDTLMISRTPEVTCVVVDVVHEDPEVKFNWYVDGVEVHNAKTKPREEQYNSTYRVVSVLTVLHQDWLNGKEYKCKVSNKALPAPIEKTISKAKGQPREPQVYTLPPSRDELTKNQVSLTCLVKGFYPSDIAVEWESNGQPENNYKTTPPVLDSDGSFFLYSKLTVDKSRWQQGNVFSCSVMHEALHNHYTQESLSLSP
light: B1 light
notes: as for B1
B43: GpH7-B3 variant I336_03V/GpL16-k0 (antibody, human IgG1, kappa)
heavy: not shown
light: B1 light
notes: as for B1
B44: GpH7-B3 variant E269_08L/GpL16-k0 (antibody, human IgG1, kappa)
heavy: not shown
light: B1 light
notes: as for B1
B45: GpH7-B3 variant Q295_05P/GpL16-k0 (antibody, human IgG1, kappa)
heavy: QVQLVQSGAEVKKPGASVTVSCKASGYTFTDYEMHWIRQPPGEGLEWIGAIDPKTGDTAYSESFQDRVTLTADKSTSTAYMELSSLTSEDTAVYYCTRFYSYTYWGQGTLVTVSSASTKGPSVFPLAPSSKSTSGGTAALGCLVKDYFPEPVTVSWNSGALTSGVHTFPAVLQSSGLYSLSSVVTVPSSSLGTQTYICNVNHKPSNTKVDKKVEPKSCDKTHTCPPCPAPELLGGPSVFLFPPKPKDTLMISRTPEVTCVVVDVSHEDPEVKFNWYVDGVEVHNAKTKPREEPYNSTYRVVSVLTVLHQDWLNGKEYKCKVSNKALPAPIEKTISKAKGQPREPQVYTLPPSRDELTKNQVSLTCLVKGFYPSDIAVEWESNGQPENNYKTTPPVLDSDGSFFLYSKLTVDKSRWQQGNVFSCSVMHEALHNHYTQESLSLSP
light: B1 light
notes: as for B1
B46: GpH7-B3 variant S298_07I/GpL16-k0 (antibody, human IgG1, kappa)
heavy: not shown
light: B1 light
notes: as for B1
B47: GpH7-B3 variant K326_16H/GpL16-k0 (antibody, human IgG1, kappa)
heavy: not shown
light: B1 light
notes: as for B1
B48: GpH7-B3 variant I336_04F/GpL16-k0 (antibody, human IgG1, kappa)
heavy: not shown
light: B1 light
notes: as for B1
B49: GpH7-B3 variant E333_01G/GpL16-k0 (antibody, human IgG1, kappa)
heavy: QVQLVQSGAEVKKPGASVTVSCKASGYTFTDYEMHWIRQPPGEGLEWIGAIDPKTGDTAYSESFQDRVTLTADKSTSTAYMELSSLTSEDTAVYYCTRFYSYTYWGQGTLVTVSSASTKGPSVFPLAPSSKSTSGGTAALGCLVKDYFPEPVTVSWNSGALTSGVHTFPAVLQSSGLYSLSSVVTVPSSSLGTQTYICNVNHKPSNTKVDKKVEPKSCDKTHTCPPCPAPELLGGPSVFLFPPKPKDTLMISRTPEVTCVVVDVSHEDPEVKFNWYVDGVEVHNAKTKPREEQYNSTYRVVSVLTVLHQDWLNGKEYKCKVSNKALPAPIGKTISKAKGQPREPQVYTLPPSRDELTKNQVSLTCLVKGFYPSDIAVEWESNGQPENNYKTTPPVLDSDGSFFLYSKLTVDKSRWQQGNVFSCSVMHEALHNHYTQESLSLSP
light: B1 light
notes: as for B1
B50: GpH7-B3 variant A330_09D/GpL16-k0 (antibody, human IgG1, kappa)
heavy: not shown
light: B1 light
notes: as for B1
B51: GpH7-B3 variant S298_14T/GpL16-k0 (antibody, human IgG1, kappa)
heavy: not shown
light: B1 light
notes: as for B1
B52: GpH7-B3 variant Q295_18N/GpL16-k0 (antibody, human IgG1, kappa)
heavy: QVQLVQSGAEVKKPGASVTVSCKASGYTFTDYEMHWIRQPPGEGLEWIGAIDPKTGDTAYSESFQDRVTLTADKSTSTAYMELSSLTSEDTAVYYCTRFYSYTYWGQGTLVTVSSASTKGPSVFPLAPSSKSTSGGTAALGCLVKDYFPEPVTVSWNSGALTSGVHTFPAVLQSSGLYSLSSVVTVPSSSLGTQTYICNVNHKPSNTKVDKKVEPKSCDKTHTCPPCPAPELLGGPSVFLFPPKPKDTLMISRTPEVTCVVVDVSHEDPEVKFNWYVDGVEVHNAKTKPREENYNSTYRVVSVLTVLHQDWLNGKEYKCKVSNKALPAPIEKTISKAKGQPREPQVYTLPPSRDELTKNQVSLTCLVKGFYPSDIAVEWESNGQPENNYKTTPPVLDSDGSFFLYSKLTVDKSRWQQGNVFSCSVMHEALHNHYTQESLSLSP
light: B1 light
notes: as for B1
B53: GpH7-B3 variant S298_19Q/GpL16-k0 (antibody, human IgG1, kappa)
heavy: not shown
light: B1 light
notes: as for B1
B54: GpH7-B3 variant Q295_13S/GpL16-k0 (antibody, human IgG1, kappa)
heavy: not shown
light: B1 light
notes: as for B1
B55: GpH7-B3 variant S324_08L/GpL16-k0 (antibody, human IgG1, kappa)
heavy: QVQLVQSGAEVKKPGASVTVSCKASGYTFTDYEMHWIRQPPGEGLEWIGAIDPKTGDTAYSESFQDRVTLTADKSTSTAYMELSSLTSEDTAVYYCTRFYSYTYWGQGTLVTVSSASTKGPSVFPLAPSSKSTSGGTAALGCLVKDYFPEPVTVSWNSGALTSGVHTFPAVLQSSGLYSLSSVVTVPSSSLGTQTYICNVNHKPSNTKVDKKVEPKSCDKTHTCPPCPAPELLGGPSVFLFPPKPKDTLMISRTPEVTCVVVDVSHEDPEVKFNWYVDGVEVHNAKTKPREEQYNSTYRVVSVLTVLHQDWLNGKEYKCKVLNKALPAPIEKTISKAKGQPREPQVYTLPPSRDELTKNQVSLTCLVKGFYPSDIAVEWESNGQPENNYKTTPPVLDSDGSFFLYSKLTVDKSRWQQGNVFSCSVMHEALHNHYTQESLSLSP
light: B1 light
notes: as for B1
B56: GpH7-B3 variant I336_06M/GpL16-k0 (antibody, human IgG1, kappa)
heavy: not shown
light: B1 light
notes: as for B1

For the assay, the target named is T1, FcγRIa (human, UniProt P12314 16-292).
T1 construct: extracellular domain; soluble extracellular domain with C-terminal His tag, expressed in FreeStyle293 cells; also called FcgRI; FcgRIa
T1 sequence (P12314 16-292): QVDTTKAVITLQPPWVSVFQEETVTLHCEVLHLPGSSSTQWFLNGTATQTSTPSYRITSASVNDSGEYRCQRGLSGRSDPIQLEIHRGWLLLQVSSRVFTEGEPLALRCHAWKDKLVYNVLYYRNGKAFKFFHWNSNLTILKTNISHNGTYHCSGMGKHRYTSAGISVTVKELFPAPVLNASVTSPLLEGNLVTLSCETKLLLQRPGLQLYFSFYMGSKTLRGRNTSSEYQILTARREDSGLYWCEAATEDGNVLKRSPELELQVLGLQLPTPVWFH
As to the kind of experiment: SPR (Biacore), captured antibody, FcγRIa analyte; relative to HoCon Ab GpH7-B3/GpL16-k0 = 100.
With B1, the Ho/Con_1a was 102 % of control.

With B2, the Ho/Con_1a was 101 % of control.

For B3, the Ho/Con_1a was 108 % of control.

For B4, the Ho/Con_1a was 102 % of control.

Turning to B5, the Ho/Con_1a is 104 % of control.

As to B6, the Ho/Con_1a was 102 % of control.

For the molecule B7, the Ho/Con_1a is 100 % of control.

B8: the Ho/Con_1a is 101 % of control.

With B9, the Ho/Con_1a was 102 % of control.

Regarding B10, the Ho/Con_1a is 103 % of control.

B11: the Ho/Con_1a was 103 % of control.

B12: the Ho/Con_1a was 106 % of control.

B13: the Ho/Con_1a is 102 % of control.

In the case of B14, the Ho/Con_1a was 101 % of control.

B15: the Ho/Con_1a was 100 % of control.

In the case of B16, the Ho/Con_1a is 104 % of control.

In the case of B17, the Ho/Con_1a is 101 % of control.

As to B18, the Ho/Con_1a was 104 % of control.

B19: the Ho/Con_1a was 102 % of control.

As for B20, the Ho/Con_1a was 103 % of control.

For the molecule B21, the Ho/Con_1a is 106 % of control.

With B22, the Ho/Con_1a is 101 % of control.

Take B23: the Ho/Con_1a is 104 % of control.

For B24, the Ho/Con_1a was 102 % of control.

Turning to B25, the Ho/Con_1a is 103 % of control.

As for B26, the Ho/Con_1a is 103 % of control.

Turning to B27, the Ho/Con_1a is 106 % of control.

Consider B28, for which the Ho/Con_1a is 102 % of control.

With B29, the Ho/Con_1a was 101 % of control.

As to B30, the Ho/Con_1a was 101 % of control.

For the molecule B31, the Ho/Con_1a was 106 % of control.

For B32, the Ho/Con_1a was 104 % of control.

As for B33, the Ho/Con_1a was 107 % of control.

As for B34, the Ho/Con_1a is 101 % of control.

B35: the Ho/Con_1a is 107 % of control.

For the molecule B36, the Ho/Con_1a was 101 % of control.

As to B37, the Ho/Con_1a is 102 % of control.

In the case of B38, the Ho/Con_1a was 104 % of control.

Regarding B39, the Ho/Con_1a is 100 % of control.

Turning to B40, the Ho/Con_1a was 105 % of control.

On to B41, for which the Ho/Con_1a is 107 % of control.

Take B42: the Ho/Con_1a was 102 % of control.

For B43, the Ho/Con_1a is 105 % of control.

For B44, the Ho/Con_1a was 101 % of control.

As to B45, the Ho/Con_1a is 101 % of control.

B46: the Ho/Con_1a was 103 % of control.

With B47, the Ho/Con_1a is 101 % of control.

With B48, the Ho/Con_1a is 104 % of control.

Take B49: the Ho/Con_1a is 100 % of control.

On to B50, for which the Ho/Con_1a was 108 % of control.

B51: the Ho/Con_1a is 106 % of control.

Consider B52, for which the Ho/Con_1a is 101 % of control.

Turning to B53, the Ho/Con_1a was 105 % of control.

For the molecule B54, the Ho/Con_1a is 101 % of control.

For the molecule B55, the Ho/Con_1a was 103 % of control.

As to B56, the Ho/Con_1a was 104 % of control.
